Reference: patent US20160137730A1 (Novartis, published 2016)
Where a chain is given by its changes, count along the chain named.

B1: NEG0064 (antibody, human IgG1, kappa, V domains shown)
VH: QIQLVQSGAEVKKPGSSVKVSCKVSGYTFTDHTLHWMRQAPGQGLEWMGYIYPRSGSTKYNENFRGRVTITADTSSSTAYMELSSLRSEDTAVYYCVRRLLFLPLDYWGQGTLVTVSS
VL: EIVMTQSPATLSLSPGERATLSCRSSQSLLSSGNQKSYLTWYQQKPGQAPRLLIYWASTRESGIPARFSGSGSGTDFTLTISSLQPEDFAVYYCQNDYSYPFTFGQGTKLEIKR
notes: Humanized anti-P-cadherin antibody derived from a murine hybridoma; also called NEG0064 Naked
B2: NEG0064-MCC-DM1 (antibody, human IgG1, kappa, V domains shown)
VH: B1 VH
VL: B1 VL
modifications: DM1 (maytansinoid) attached through the MCC linker to primary amines of the antibody; sites not given
notes: Antibody drug conjugate in Ab-MCC-DM1 format; also called NEG0064 ADC
B3: NEG0067 (antibody, human IgG1, kappa, V domains shown)
VH: B1 VH with R65K
VL: B1 VL
notes: Humanized anti-P-cadherin antibody derived from a murine hybridoma; also called NEG0067 Naked
B4: NEG0016 (antibody, human IgG1, kappa, V domains shown)
VH: B1 VH with V97A
VL: B1 VL
notes: Humanized anti-P-cadherin antibody derived from a murine hybridoma; also called NEG0016 Naked
B5: NEG0067-MCC-DM1 (antibody, human IgG1, kappa, V domains shown)
VH: B1 VH with R65K
VL: B1 VL
modifications: DM1 (maytansinoid) attached through the MCC linker to primary amines of the antibody; sites not given
notes: Antibody drug conjugate in Ab-MCC-DM1 format; also called NEG0067 ADC
B6: NEG0016-MCC-DM1 (antibody, human IgG1, kappa, V domains shown)
VH: B1 VH with V97A
VL: B1 VL
modifications: DM1 (maytansinoid) attached through the MCC linker to primary amines of the antibody; sites not given
notes: Antibody drug conjugate in Ab-MCC-DM1 format; also called NEG0016 ADC
B7: NEG0012-MCC-DM1 (antibody, human IgG1, kappa, V domains shown)
VH: EVQLVQSGAEVKKPGESLKISCKVSGYTFTDHTIHWMRQMPGKGLEWMGYIYPRSGSINYNEKFKGQVTISADKSSSTAYLQWSSLKASDTAMYYCARRNLFLPMEYWGQGTLVTVSS
VL: DIVMTQTPLSLPVTPGEPASISCRSSQSLLSSGDQKNYLTWYLQKPGQSPQLLIYWASTRESGVPDRFSGSGSGTDFTLKISRVEAEDVGVYYCQNDYRYPLTFGQGTKLEIKR
modifications: DM1 (maytansinoid) attached through the MCC linker to primary amines of the antibody; sites not given
notes: Antibody drug conjugate in Ab-MCC-DM1 format; also called NEG0012 ADC
B8: NEG0012 (antibody, human IgG1, kappa, V domains shown)
VH: B7 VH
VL: B7 VL
notes: Humanized anti-P-cadherin antibody derived from a murine hybridoma; also called NEG0012 Naked
B9: NEG0013-MCC-DM1 (antibody, human IgG1, kappa, V domains shown)
VH: B7 VH
VL: B7 VL with D34N, R99S
modifications: DM1 (maytansinoid) attached through the MCC linker to primary amines of the antibody; sites not given
notes: Antibody drug conjugate in Ab-MCC-DM1 format; also called NEG0013 ADC
B10: NEG0013 (antibody, human IgG1, kappa, V domains shown)
VH: B7 VH
VL: B7 VL with D34N, R99S
notes: Humanized anti-P-cadherin antibody derived from a murine hybridoma; also called NEG0013 Naked
B11: NOV169N31Q-MCC-DM1 (antibody, human IgG1, kappa, V domains shown)
VH: QVQLQQSGPGLVKPSQTLSLTCAISGDSVSSQSAAWNWIRQSPSRGLEWLGRIYYRSKWYNDYALSVKSRITINPDTSKNQFSLQLNSVTPEDTAVYYCARGEGYGREGFAIWGQGTLVTVSS
VL: DIQMTQSPSSLSASVGDRVTITCRASQTISNTLAWYQQKPGKAPKLLIYAASNLQSGVPSRFSGSGSGTDFTLTISSLQPEDFATYYCQQYLSWFTFGQGTKVEIKR
modifications: DM1 (maytansinoid) attached through the MCC linker to primary amines of the antibody; sites not given
notes: MAR 3.7 (one-step process), 3.15 (in situ process), target DAR 3.8; also called NOV169N31Q ADC
B12: NOV169N31Q (antibody, human IgG1, kappa, V domains shown)
VH: B11 VH
VL: B11 VL
notes: N31Q in HCDR1 removes a deamidation site of parental NOV169; also called anti-P-cadherin antibody NOV169N31Q; NOV169N31Q Naked

Key:
[1] = target: T1, Human P-cadherin (CDH3) D1-5 (human, UniProt P22223 108-652); test: SPR Biacore, Ab captured via Protein A, ECD-6xHis analyte, 25C, 1:1 fit
T1 construct: Human CDH3 residues 108-652 with a C-terminal 6xHis tag, made in Tn5 insect cells with baculovirus (NM_001793.4, NP_001784); It may include a secretion signal and vector residues, as the printed cyno constructs do; no cleavage site is stated; also called human pCAD-6xHis; human P-cadherin ECD
Description: (§1) Briefly, HBS-P⁺ (0.01 M HEPES, pH 7.4, 0.15 M NaCl, 0.05% Surfactant P20) supplemented with 2% Odyssey® blocking buffer (Li-Cor Biosciences, Lincoln, Nebr.) was used as the running buffer for all the experiments on the Biacore® T100 instrument. HBS-P (0.01 M HEPES, pH 7.4, 0.15 M NaCl, 0.005% Surfactant P20) supplemented with 2% Odyssey® blocking buffer was used as the running buffer for all the experiments on the Biacore® 2000 instrument. The immobilization level and analyte interactions were measured by response unit (RU).
(§2) For kinetic measurements, experiments were performed in which the antibodies were captured to the sensor chip surface via the immobilized Protein A and the ability of the P-cadherin proteins to bind in free solution was determined. Briefly, 28 μg/ml of Protein A at pH 4.5 was immobilized on a CM5 sensor chip through amine coupling at flow rate of 10 μl/minute on two flow cells to reach 2300-3300 RUs. 0.01-0.25 μg/ml of test antibodies was then injected at 5 μl/min for 3 minute. […] Subsequently, 6.25-100 nM of P-cadherin ECD was diluted in a 2-fold series and injected at a flow rate of 40 μl/min for 2-4 min over both reference and test flow cells. Table 11 of tested ECDs is listed below. Dissociation of the binding was followed for 5 min. After each injection cycle, the chip surface was regenerated with PBS/6 M Guanidine HCl, pH 7.4 at 100 μl/min for 45 seconds.

[2] = target: T2, Rat P-cadherin (CDH3) D1-5 (rat, UniProt P10287 100-647 (mouse entry)); test: as above
T2 construct: Rat CDH3 residues 100-647 with a C-terminal 6xHis tag (NM_053938.1, NP_446390); it may include leader and vector residues; also called rat pCAD-6xHis
T2 chain: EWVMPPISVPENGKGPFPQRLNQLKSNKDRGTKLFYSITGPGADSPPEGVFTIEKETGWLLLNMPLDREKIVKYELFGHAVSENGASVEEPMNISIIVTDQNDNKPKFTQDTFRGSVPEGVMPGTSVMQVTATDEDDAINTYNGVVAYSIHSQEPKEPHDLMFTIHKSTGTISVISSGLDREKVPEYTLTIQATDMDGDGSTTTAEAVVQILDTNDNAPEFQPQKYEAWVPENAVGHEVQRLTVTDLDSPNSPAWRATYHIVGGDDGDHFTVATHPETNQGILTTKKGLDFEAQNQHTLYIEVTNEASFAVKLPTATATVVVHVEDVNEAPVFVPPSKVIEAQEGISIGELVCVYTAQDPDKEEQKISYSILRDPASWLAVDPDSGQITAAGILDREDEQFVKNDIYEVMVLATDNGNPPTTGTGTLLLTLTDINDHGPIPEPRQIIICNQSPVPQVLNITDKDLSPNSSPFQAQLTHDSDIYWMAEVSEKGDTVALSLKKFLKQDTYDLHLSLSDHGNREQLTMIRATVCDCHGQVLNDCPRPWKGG
Description: as §1, §2

[3] = target: T1, Human P-cadherin (CDH3) D1-5; test: SPR Biacore, ADC captured via Protein A, ECD-6xHis analyte, 25C, 1:1 fit
Description: as §1, §2

[4] = target: T2, Rat P-cadherin (CDH3) D1-5; test: as above
Description: as §1, §2

[5] = target: T3, Cynomolgus Monkey P-cadherin var. 2 (CDH3) D1-5 (cynomolgus monkey); test: as above
T3 construct: Cynomolgus CDH3 variant 2 residues 108-654 with a C-terminal 6xHis tag; The printed entry starts with a leader and vector residues; also called Cyno_2 P-cad; cyno2 pCAD-6xHis
Description: as §1, §2

[6] = target: T4, Cynomolgus Monkey P-cadherin var. 1 (CDH3) D1-5 (cynomolgus monkey); test: as above
T4 construct: Cynomolgus CDH3 variant 1 residues 108-654 with a C-terminal 6xHis tag; The printed entry starts with a leader and vector residues; also called Cyno_1 P-cad; cyno1 pCAD-6xHis
Description: as §1, §2

[7] = target: Human P-cadherin (human, UniProt P22223 108-829); test: cell-based or functional assay
[8] = target: T2, Rat P-cadherin (CDH3) D1-5; test: SPR Biacore, Ab captured via Protein A, ECD-6xHis analyte

T1 sequence (P22223 108-652 limits assumed): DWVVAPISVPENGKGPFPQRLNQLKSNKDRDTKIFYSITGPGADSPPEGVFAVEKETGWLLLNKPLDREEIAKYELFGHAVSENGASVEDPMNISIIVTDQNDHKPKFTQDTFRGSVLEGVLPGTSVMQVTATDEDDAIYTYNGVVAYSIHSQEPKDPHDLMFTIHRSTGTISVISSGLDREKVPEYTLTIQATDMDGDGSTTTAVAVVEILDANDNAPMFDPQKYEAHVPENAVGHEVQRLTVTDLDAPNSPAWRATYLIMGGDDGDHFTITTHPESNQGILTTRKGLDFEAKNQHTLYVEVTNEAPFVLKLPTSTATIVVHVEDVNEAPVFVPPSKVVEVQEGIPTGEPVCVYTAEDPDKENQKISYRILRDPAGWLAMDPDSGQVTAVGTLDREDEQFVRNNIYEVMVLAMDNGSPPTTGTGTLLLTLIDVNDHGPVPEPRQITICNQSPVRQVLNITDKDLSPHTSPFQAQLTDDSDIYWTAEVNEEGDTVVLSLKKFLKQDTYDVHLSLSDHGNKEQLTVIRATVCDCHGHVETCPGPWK
Chain of Human P-cadherin (P22223 108-829 limits assumed): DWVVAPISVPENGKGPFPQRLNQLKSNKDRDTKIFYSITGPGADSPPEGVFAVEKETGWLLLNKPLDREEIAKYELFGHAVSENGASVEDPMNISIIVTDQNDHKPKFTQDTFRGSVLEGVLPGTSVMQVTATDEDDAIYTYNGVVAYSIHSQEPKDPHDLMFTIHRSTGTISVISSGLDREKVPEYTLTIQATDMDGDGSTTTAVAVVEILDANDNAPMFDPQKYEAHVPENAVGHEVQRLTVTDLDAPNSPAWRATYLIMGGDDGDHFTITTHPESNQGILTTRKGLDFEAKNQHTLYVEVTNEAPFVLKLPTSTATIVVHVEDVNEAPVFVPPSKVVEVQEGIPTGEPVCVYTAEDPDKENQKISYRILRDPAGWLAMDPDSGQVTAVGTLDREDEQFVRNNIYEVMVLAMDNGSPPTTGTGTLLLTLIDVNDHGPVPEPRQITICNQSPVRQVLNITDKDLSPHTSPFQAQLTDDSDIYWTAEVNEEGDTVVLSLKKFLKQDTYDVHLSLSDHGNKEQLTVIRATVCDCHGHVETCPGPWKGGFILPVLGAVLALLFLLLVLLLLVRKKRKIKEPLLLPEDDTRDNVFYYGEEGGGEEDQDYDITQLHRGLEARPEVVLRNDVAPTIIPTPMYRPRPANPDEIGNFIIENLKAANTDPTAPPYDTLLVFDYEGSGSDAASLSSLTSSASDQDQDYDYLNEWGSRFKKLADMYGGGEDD
T3 sequence (chain, as listed by the source limits assumed): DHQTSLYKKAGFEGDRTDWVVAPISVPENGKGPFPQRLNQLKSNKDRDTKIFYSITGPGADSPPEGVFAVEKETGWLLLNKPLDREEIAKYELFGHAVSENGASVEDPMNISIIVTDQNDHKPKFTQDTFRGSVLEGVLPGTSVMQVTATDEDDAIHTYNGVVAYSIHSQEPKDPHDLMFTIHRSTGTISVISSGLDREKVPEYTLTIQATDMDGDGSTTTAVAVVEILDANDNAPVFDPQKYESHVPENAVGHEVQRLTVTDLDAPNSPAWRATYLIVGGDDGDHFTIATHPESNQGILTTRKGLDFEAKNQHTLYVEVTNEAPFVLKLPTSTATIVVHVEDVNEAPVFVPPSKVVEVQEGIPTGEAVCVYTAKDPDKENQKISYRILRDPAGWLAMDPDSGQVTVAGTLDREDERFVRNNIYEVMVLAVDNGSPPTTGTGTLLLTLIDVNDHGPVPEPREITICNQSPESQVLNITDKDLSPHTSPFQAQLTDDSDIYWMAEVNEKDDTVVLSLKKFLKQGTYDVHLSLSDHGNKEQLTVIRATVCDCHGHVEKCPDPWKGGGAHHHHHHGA
T4 sequence (chain, as listed by the source limits assumed): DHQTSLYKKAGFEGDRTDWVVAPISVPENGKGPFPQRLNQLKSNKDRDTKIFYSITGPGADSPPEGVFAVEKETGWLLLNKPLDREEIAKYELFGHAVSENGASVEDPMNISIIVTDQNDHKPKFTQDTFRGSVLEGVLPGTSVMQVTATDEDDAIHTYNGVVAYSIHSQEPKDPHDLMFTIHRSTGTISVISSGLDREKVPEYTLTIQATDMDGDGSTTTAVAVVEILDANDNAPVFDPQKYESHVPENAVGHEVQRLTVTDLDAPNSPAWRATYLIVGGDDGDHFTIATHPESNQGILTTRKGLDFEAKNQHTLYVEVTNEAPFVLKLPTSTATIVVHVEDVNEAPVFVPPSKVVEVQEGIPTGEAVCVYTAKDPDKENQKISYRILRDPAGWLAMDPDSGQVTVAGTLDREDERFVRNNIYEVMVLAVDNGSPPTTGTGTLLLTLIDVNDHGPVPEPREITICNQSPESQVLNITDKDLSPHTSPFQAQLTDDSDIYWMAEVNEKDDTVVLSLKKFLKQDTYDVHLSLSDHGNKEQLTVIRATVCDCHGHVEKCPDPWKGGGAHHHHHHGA

Binder	Kd [1] [nM]	Kd [2] [nM]	Kd [3] [nM]	also measured
B1	3.66	8.99		
B2			4.4	Kd [4]: 13.3 nM
B3	3.21	10.3		
B4	60	60.1		
B5			6	
B6			54	
B7			31.3	
B8	44.8			
B9			36	
B10	37.3	37		
B11			27	Kd [5]: 47.1 nM; Kd [6]: 27.5 nM; IC50 (nM), CellTiter-Glo proliferation/survival, 5 days, A431 cells [7]: 21.8 nM; IC50 (nM), CellTiter-Glo proliferation/survival, 5 days, BICR6 cells [7]: 9.62 nM; IC50 (nM), CellTiter-Glo proliferation/survival, 5 days, HCC38 cells [7]: 5.29 nM; IC50 (nM), CellTiter-Glo proliferation/survival, 5 days, HCC70 cells [7]: 3.23 nM; IC50 (nM), CellTiter-Glo proliferation/survival, 5 days, HCC1806 cells [7]: 11.4 nM; IC50 (nM), CellTiter-Glo proliferation/survival, 5 days, HCC1954 cells [7]: 2.28 nM; IC50 (nM), CellTiter-Glo proliferation/survival, 5 days, scaBER cells [7]: 4.06 nM
B12	33.3			binding result [8]: no binding (tested: 6.25-100 nM P-cadherin ECD injected)
